What was measured:
Test in all cases: radioligand binding
[1] = target: hLHR(D405N), on intact HEK293 cells (human, UniProt P22888 27-699, D405N)
[2] = target: hLHR(Y546F), on intact HEK293 cells (human, UniProt P22888 27-699, Y546F)
[3] = target: hLHR(D405N,Y546F), on intact HEK293 cells (human, UniProt P22888 27-699, D405N | Y546F)
Sequence of hLHR(D405N,Y546F), on intact HEK293 cells (P22888 27-699 D405N/Y546F): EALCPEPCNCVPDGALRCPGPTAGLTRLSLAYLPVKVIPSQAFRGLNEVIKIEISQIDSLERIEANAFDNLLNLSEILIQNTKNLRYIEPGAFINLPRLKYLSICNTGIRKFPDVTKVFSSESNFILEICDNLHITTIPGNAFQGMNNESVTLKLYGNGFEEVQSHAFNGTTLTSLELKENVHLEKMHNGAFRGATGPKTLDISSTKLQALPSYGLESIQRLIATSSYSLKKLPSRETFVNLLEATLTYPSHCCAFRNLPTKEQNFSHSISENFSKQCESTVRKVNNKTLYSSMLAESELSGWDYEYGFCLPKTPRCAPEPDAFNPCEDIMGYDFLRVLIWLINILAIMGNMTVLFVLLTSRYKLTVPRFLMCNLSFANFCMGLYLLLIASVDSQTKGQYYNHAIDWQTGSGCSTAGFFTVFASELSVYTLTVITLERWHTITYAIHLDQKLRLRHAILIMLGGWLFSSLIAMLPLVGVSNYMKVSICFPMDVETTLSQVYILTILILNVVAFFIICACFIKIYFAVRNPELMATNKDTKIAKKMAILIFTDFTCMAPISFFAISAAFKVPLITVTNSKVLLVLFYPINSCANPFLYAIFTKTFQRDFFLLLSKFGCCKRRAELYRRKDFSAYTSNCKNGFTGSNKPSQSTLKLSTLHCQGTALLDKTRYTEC

Sequence of hLHR(D405N), on intact HEK293 cells (P22888 27-699 D405N): as the sequence (P22888 27-699 D405N/Y546F) above, with F520Y counted along it
Sequence of hLHR(Y546F), on intact HEK293 cells (P22888 27-699 Y546F): as the sequence (P22888 27-699 D405N/Y546F) above, with N379D counted along it

B1: human chorionic gonadotropin (hCG), highly purified recombinant, 125I-labelled (ligand)
chain 1: not shown
chain 2: SKEPLRPRCRPINATLAVEKEGCPVCITVNTTICAGYCPTMTRVLQGVLPALPQVVCNYRDVRFESIRLPGCPRGVNPVVSYAVALSCQCALCRRSTTDCGGPKDHPLTCDDPRFQDSSSSKAPPPSLPSPSRLPGPSDTPILPQ
modifications: 125I label (which chain is not stated) | 125I label (which chain is not stated)
hCG bound to intact cells [1]: 20.4 ng hCG/10^6 cells | hCG bound to intact cells [2]: 22.6 ng hCG/10^6 cells | hCG bound to intact cells [3]: 8.7 ng hCG/10^6 cells

Source: article PMC2735609 (Cellular signalling, 2009)
